Where a chain is given by its changes, count along the chain named. Numbers in names are those of the source.
Columns and labels:
Assay type in all cases: cell-based, human
[1] = test system: wild-type and variant SNAP-GIPR; assay: Surface SNAP-GIPR expression (SNAP-tag labelling) in AD293 cells; conditions: for AD293 Surface: Fig S3E, mean; for Surface SNAP-GIPR expression: sheet Fig 1C;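 as to all read-outs here: scaled to the experimental average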
Summary of the method: (§1)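 Read-out: whole-cell fluorescence of surface-only SNAP label (Alexa Fluor 647, 500 nM, 10 min, RT), wide-field 20X, several FOVs per well. Flat-field corrected, phase-contrast masked, nontransfected-well signal subtracted; normalized to experiment mean or wild-type.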

[2] = test system: wild-type and variant SNAP-GIPR; assay: Surface SNAP-GIPR expression (SNAP-tag labelling) in INS-1 cells; conditions: Fig 4G; Mean
Summary of the method: as §1

[3] = test system: wild-type and variant SNAP-GIPR; assay: Single-concentration GIP cAMP response by HTRF in AD293 cells; conditions: Fig S3F, HTRF, mean;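 also: ratio to experiment-wide average response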
Procedure: (§2) All variants were tested in parallel on each occasion to control for transfection efficiency differences between experiments.

[4] = test system: wild-type and variant SNAP-GIPR; assay: Single-concentration GIP cAMP response by HTRF in INS-1 cells; conditions: Fig S3E, mean
Procedure: as §2

[5] = test system: wild-type and variant SNAP-GIPR; assay: cADDis cAMP imaging in AD293 cells, ensemble, expression-matched and per decile; conditions: Fig S3F, cADDis, mean;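 also: Ensemble cells as % of IBMX/FSK response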
Summary of the method: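 Surface GIPR and cAMP are measured in individual AD293 cells coexpressing SNAP-tagged receptor and the green cADDis biosensor, imaged live at 37°C. Responses are reported ensemble, expression-matched against wild-type deciles with extremes trimmed, or within each variant's own surface deciles.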

[6] = test system: wild-type and variant SNAP-GIPR; assay: Constitutive and agonist-mediated internalization, reversible SNAP-tag labelling, AD293 cells; design: key to Internalisation, Vehicle / Internalisation, +GIP / Internalisation, GIP-only: % internalization: residual fluorescence after Mesna vs pre-Mesna; Surface expression: unit not given here; conditions: Mean; for +GIP internalisation (100 nM) / GIP-specific internalisation (100 nM) / Constitutive internalisation (100 nM) / Surface expression: Fig 4E; for +GIP internalisation (100 nM) / GIP-specific internalisation (100 nM): GIP 100 nM; for Internalisation, +GIP / Internalisation, GIP-only / Internalisation, Vehicle: Fig S4C, AD293
Summary of the method: (§3)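 Percentage internalization calculated as specific SNAP fluorescence remaining after 10 min Mesna exposure, relative to pre-Mesna signal, imaged in TNE buffer (pH 8.6).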

[7] = test system: wild-type and variant SNAP-GIPR; assay: Constitutive and agonist-mediated internalization, reversible SNAP-tag labelling, INS-1 cells; design: key to Internalisation, GIP-only / Internalisation, Vehicle / Internalisation, +GIP: % internalization: residual fluorescence after Mesna vs pre-Mesna; conditions: Mean; for +GIP internalisation (100 nM) / GIP-specific internalisation (100 nM) / Constitutive internalisation (100 nM): Fig 4G; for +GIP internalisation (100 nM) / GIP-specific internalisation (100 nM): GIP 100 nM; for Internalisation, +GIP / Internalisation, GIP-only / Internalisation, Vehicle: Fig S4C, INS-1
Summary of the method: as §3

[8] = column repeated, paired with cAMP 100 nM

B1: L262H (protein, UniProt P48546 22-466, looked up, variant L262H)
Gastric inhibitory …: RAETGSKGQTAGELYQRWERYRRECQETLAAAEPPSGLACNGSFDMYVCWDYAAPNATARASCPWYLPWHHHVAAGFVLRQCGSDGQWGLWRDHTQCENPEKNEAFLDQRLILERLQVMYTVGYSLSLATLLLALLILSLFRRLHCTRNYIHINLFTSFMLRAAAILSRDRLLPRPGPYLGDQALALWNQALAACRTAQIVTQYCVGANYTWLLVEGVYLHSLLVLVGGSEEGHFRYYLLHGWGAPALFVIPWVIVRYLYENTQCWERNEVKAIWWIIRTPILMTILINFLIFIRILGILLSKLRTRQMRCRDYRLRLARSTLTLVPLLGVHEVVFAPVTEEQARGALRFAKLGFEIFLSSFQGFLVSVLYCFINKEVQSEIRRGWHHCRLRRSLGEEQRQLPERAFRALPSGSGPGEVPTSRGLSSGTLPGPGNEASRELESYC
[1]; [8]
  AD293 Surface: 0.4082
[1]; paired with cAMP 100 pM
  AD293 Surface: 0.4082
[1]; replicate 1
  Surface SNAP-GIPR expression: 0.05586
[1]; replicate 2
  Surface SNAP-GIPR expression: 0.3975
[1]; replicate 3
  Surface SNAP-GIPR expression: 0.3851
[1]; replicate 4
  Surface SNAP-GIPR expression: 0.346
[1]; replicate 5
  Surface SNAP-GIPR expression: 0.2997
[1]; replicate 6
  Surface SNAP-GIPR expression: 0.4709
[1]; replicate 7
  Surface SNAP-GIPR expression: 0.6801
[1]; replicate 8
  Surface SNAP-GIPR expression: 0.6962
[1]; replicate 9
  Surface SNAP-GIPR expression: 0.3552
[1]; replicate 10
  Surface SNAP-GIPR expression: 0.4769
[1]; replicate 11
  Surface SNAP-GIPR expression: 0.4805
[1]; replicate 12
  Surface SNAP-GIPR expression: 0.4059
[1]; replicate 13
  Surface SNAP-GIPR expression: 0.3345
[1]; replicate 14
  Surface SNAP-GIPR expression: 0.4406
[1]; replicate 15
  Surface SNAP-GIPR expression: 0.3425
[1]; replicate 16
  Surface SNAP-GIPR expression: 0.4438
[1]; replicate 17
  Surface SNAP-GIPR expression: 0.4347
[1]; replicate 18
  Surface SNAP-GIPR expression: 0.4011
[1]; replicate 19
  Surface SNAP-GIPR expression: 0.3575
[1]; replicate 20
  Surface SNAP-GIPR expression: 0.2679
[1]; replicate 21
  Surface SNAP-GIPR expression: 0.3532
[1]; replicate 22
  Surface SNAP-GIPR expression: 0.4093
[1]; replicate 23
  Surface SNAP-GIPR expression: 0.4836
[1]; replicate 24
  Surface SNAP-GIPR expression: 0.3698
[1]; replicate 25
  Surface SNAP-GIPR expression: 0.4044
[1]; replicate 26
  Surface SNAP-GIPR expression: 0.4747
[1]; replicate 27
  Surface SNAP-GIPR expression: 0.4781
[1]; replicate 28
  Surface SNAP-GIPR expression: 0.4405
[1]; replicate 29
  Surface SNAP-GIPR expression: 0.3368
[1]; replicate 30
  Surface SNAP-GIPR expression: 0.4516
[1]; replicate 31
  Surface SNAP-GIPR expression: 0.3843
[1]; replicate 32
  Surface SNAP-GIPR expression: 0.4196
[1]; replicate 33
  Surface SNAP-GIPR expression: 0.4081
[1]; replicate 34
  Surface SNAP-GIPR expression: 0.4658
[1]; replicate 35
  Surface SNAP-GIPR expression: 0.5726
[1]; replicate 36
  Surface SNAP-GIPR expression: 0.3172
[1]; replicate 37
  Surface SNAP-GIPR expression: 0.2985
[1]; replicate 38
  Surface SNAP-GIPR expression: 0.4456
[1]; replicate 39
  Surface SNAP-GIPR expression: 0.3825
[1]; replicate 40
  Surface SNAP-GIPR expression: 0.3992
[1]; replicate 41
  Surface SNAP-GIPR expression: 0.3665
[2]
  Surface expression: 0.4629
[3]
  AD293 100 pM HTRF: 0.1729
  AD293 100 nM HTRF: 1.14
[4]
  INS-1 cAMP (100 nM): 0.9739
[5]
  AD293 100 pM cADDis: 18.6863
  AD293 100 nM cADDis: 34.26
[6]
  +GIP internalisation (100 nM): 0.2171
  GIP-specific internalisation (100 nM): 0.04083
  Constitutive internalisation (100 nM): 0.1763
  Surface expression: 0.3728
  Internalisation, +GIP: 58.197
  Internalisation, GIP-only: 10.9885
  Internalisation, Vehicle: 47.2085
[7]
  +GIP internalisation (100 nM): 0.2099
  GIP-specific internalisation (100 nM): 0.0574
  Constitutive internalisation (100 nM): 0.1525
  Internalisation, +GIP: 50.32
  Internalisation, GIP-only: 13.8767
  Internalisation, Vehicle: 36.4433

B2: D66G (protein, UniProt P48546 22-466, looked up, variant D66G)
Gastric inhibitory …: B1 Gastric inhibitory … with D45G, H241L
[1]; [8]
  AD293 Surface: 0.2845
[1]; paired with cAMP 100 pM
  AD293 Surface: 0.2845
[1]; replicate 1
  Surface SNAP-GIPR expression: 0.2625
[1]; replicate 2
  Surface SNAP-GIPR expression: 0.397
[1]; replicate 3
  Surface SNAP-GIPR expression: 0.1659
[1]; replicate 4
  Surface SNAP-GIPR expression: 0.02117
[1]; replicate 5
  Surface SNAP-GIPR expression: 0.3372
[1]; replicate 6
  Surface SNAP-GIPR expression: 0.161
[1]; replicate 7
  Surface SNAP-GIPR expression: 0.3578
[1]; replicate 8
  Surface SNAP-GIPR expression: 0.377
[1]; replicate 9
  Surface SNAP-GIPR expression: 0.35
[1]; replicate 10
  Surface SNAP-GIPR expression: 0.5096
[1]; replicate 11
  Surface SNAP-GIPR expression: 0.4534
[1]; replicate 12
  Surface SNAP-GIPR expression: 0.5149
[1]; replicate 13
  Surface SNAP-GIPR expression: 0.197
[1]; replicate 14
  Surface SNAP-GIPR expression: 0.2293
[1]; replicate 15
  Surface SNAP-GIPR expression: 0.3425
[1]; replicate 16
  Surface SNAP-GIPR expression: 0.4052
[1]; replicate 17
  Surface SNAP-GIPR expression: 0.4309
[1]; replicate 18
  Surface SNAP-GIPR expression: 0.3854
[1]; replicate 19
  Surface SNAP-GIPR expression: 0.4111
[1]; replicate 20
  Surface SNAP-GIPR expression: 0.3991
[1]; replicate 21
  Surface SNAP-GIPR expression: 0.5534
[1]; replicate 22
  Surface SNAP-GIPR expression: 0.4128
[1]; replicate 23
  Surface SNAP-GIPR expression: 0.3708
[1]; replicate 24
  Surface SNAP-GIPR expression: 0.3827
[1]; replicate 25
  Surface SNAP-GIPR expression: 0.2399
[1]; replicate 26
  Surface SNAP-GIPR expression: 0.2568
[1]; replicate 27
  Surface SNAP-GIPR expression: 0.1279
[1]; replicate 28
  Surface SNAP-GIPR expression: 0.1278
[1]; replicate 29
  Surface SNAP-GIPR expression: 0.1867
[1]; replicate 30
  Surface SNAP-GIPR expression: 0.2491
[1]; replicate 31
  Surface SNAP-GIPR expression: 0.2077
[1]; replicate 32
  Surface SNAP-GIPR expression: 0.1171
[1]; replicate 33
  Surface SNAP-GIPR expression: 0.1153
[1]; replicate 34
  Surface SNAP-GIPR expression: 0.2022
[1]; replicate 35
  Surface SNAP-GIPR expression: 0.2952
[1]; replicate 36
  Surface SNAP-GIPR expression: 0.2071
[1]; replicate 37
  Surface SNAP-GIPR expression: 0.2146
[1]; replicate 38
  Surface SNAP-GIPR expression: 0.1357
[1]; replicate 39
  Surface SNAP-GIPR expression: 0.1562
[1]; replicate 40
  Surface SNAP-GIPR expression: 0.1831
[1]; replicate 41
  Surface SNAP-GIPR expression: 0.2136
[2]
  Surface expression: 0.1735
[3]
  AD293 100 pM HTRF: 0.1227
  AD293 100 nM HTRF: 0.328
[4]
  INS-1 cAMP (100 nM): -0.2661
[5]
  AD293 100 pM cADDis: -0.704
  AD293 100 nM cADDis: 4.118
[6]
  +GIP internalisation (100 nM): 0.106
  GIP-specific internalisation (100 nM): -0.001031
  Constitutive internalisation (100 nM): 0.1071
  Surface expression: 0.1742
  Internalisation, +GIP: 61.627
  Internalisation, GIP-only: -0.8775
  Internalisation, Vehicle: 62.5045
[7]
  +GIP internalisation (100 nM): 0.08951
  GIP-specific internalisation (100 nM): -0.01151
  Constitutive internalisation (100 nM): 0.101
  Internalisation, +GIP: 50.62
  Internalisation, GIP-only: -7.618
  Internalisation, Vehicle: 58.2383
